± gives the standard deviation.

The series in a line: protein stability index of a GFP-peptide fusion (GPS, HEK-293T) (PSI 1-6); higher = more stable.
[1] abbreviates: treatment: DMSO, c terminus: a fixed tail appended.
Where [2] appears, read: treatment: MLN4924 1 uM, 8 h, c terminus: a fixed tail appended.
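Further: 24-mer peptide tiles fused after GFP, lentivirally expressed, FACS-sorted into six equal bins by GFP/DsRed ratio, decoded by Illumina sequencing, PSI is the read-weighted mean bin number.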

Regarding PVCADLQAKILQCYRENTHQTLKC [CHCHD3], the protein stability index runs as follows: under setting [1], 3.02 ± 0.23; under setting [2], 3 ± 0.25.

Consider PVCPTVCPPGGIHQVTVNESLLAP [KRT71], for which the protein stability index was found to be 4.36 ± 0.082 under setting [1] and 4.16 ± 0.21 under setting [2].

Consider PVNALVSHLLVVEPEKLYAMPDPA [ESRRA], for which the protein stability index runs as follows: under setting [1], 2.88 ± 0.24; under setting [2], 2.92 ± 0.27.

For PWCPHLVAVCPIPAAGLDVTQPCG [HDAC6], the protein stability index worked out at 2.4 ± 0.24 under setting [1] and 2.67 ± 0.34 under setting [2].

As to PYTPPATSHRRVTDVRGLEEFLSA [PLEKHN1], the protein stability index amounted to 3.98 ± 0.19 under setting [1] and 3.91 ± 0.35 under setting [2].

Consider QAAKQIKDGVTMAPAFRLSLKAKV [FSD1], for which the protein stability index by setting is: under setting [1], 3 ± 0.23; under setting [2], 3.02 ± 0.33.

Turning to QCNICGKCFSCNSNLHRHQRTHTG [ZNF263], the protein stability index turned out to be 4.44 ± 0.13 under setting [1] and 4.63 ± 0.29 under setting [2].

Sequence QCPYCQRRFNENAADRHINFCKEQ [ZC2HC1A] had a protein stability index under setting [1] of 4.91 ± 0.38 and a protein stability index under setting [2] of 5.09 ± 0.2.

QDFLLFSPEVESLPVASSSTLLPL [NFE2L1] had a protein stability index under setting [1] of 3.34 ± 0.79 and a protein stability index under setting [2] of 3.37 ± 0.57.

For the sequence QEKLQVLMAEGLLPAVKVFLDWLR [SMG5], the protein stability index by setting is: under setting [1], 2.5 ± 0.7; under setting [2], 2.57 ± 0.54.

The sequence QFEPQLTLWDVFGANKEVQELLER [RSAD1] showed a protein stability index under setting [1] of 3.24 ± 0.26 and a protein stability index under setting [2] of 3.8 ± 0.47.

As to QGENQEHLVIAEMMELGSRSRGAS [FATE1], the protein stability index reads like this: under setting [1], 4.73 ± 0.34; under setting [2], 4.73 ± 0.12.

The sequence QGEYPPGTSTWQFNFKFNLTEDMY [CNOT7] yielded a protein stability index under setting [1] of 1.9 ± 0.42 and a protein stability index under setting [2] of 2.15 ± 0.46.

As for QGLLHEAGSTDDRIVVPQRGRSTR [SPNS1], the protein stability index is, setting by setting: under setting [1], 5.13 ± 0.32; under setting [2], 5.14 ± 0.15.

In the case of QGRNSLWLSDWVTSYKVMVSNDSH [CPXM2], the protein stability index reads like this: under setting [1], 1.92 ± 0.25; under setting [2], 2.47 ± 0.56.

For QGSRSGVSGGSRSLNMSRRDSEST [PHTF1], the protein stability index under setting [1] is 4.86 ± 0.4 and the protein stability index under setting [2] came to 4.9 ± 0.22.

For QIILENQKNFGLYVQEKRDGLKRR [RAD54B], the protein stability index turned out to be 2.41 ± 0.47 under setting [1] and 2.97 ± 0.32 under setting [2].

As for QKEGEFSTCFTELQRDFLKQRPTK [OAS1], the protein stability index is, setting by setting: under setting [1], 4.26 ± 0.45; under setting [2], 4.22 ± 0.3.

Consider QLQDQDQKLLEQTQIIGEQNARLA [FBXO28], for which the protein stability index runs as follows: under setting [1], 4.75 ± 0.18; under setting [2], 4.74 ± 0.15.

As to QLRNVRERLAKNLVEKGVLTTEKQ [GOLPH3], the protein stability index amounted to 3.68 ± 0.34 under setting [1] and 3.84 ± 0.17 under setting [2].

Regarding QLVSFQKLKLTNNHLDPFGHIILN [TBX5], the protein stability index by setting is: under setting [1], 2.33 ± 0.39; under setting [2], 2.23 ± 0.33.

In the case of QNLLKELQDLALQGAKERAHQQKK [CHGA], the protein stability index is 4.75 ± 0.23 under setting [1] and 4.52 ± 0.14 under setting [2].

As for QNQPIDKARKTYERLVAQFPSSGR [CSTF3], the protein stability index by setting is: under setting [1], 3.75 ± 0.26; under setting [2], 3.9 ± 0.24.

On to QPKKLHLCPLCGKNFSNNSNLIRH [ZNF263], for which the protein stability index runs as follows: under setting [1], 3.02 ± 0.39; under setting [2], 3.37 ± 0.64.

In the case of QPVMQSDRTAIRSDTTHLVTLGGV [KLHL13], the protein stability index is 3.88 ± 0.28 under setting [1] and 3.83 ± 0.35 under setting [2].

Consider QPVQSKPQKASAPAADPPRYTFAP [PDLIM7], for which the protein stability index is, setting by setting: under setting [1], 4.37 ± 0.27; under setting [2], 4.44 ± 0.3.

For the sequence QQAEKILKSMDKNGTMTIDWNEWR [SLC25A25], the protein stability index under setting [1] stood at 3.36 ± 0.47 and the protein stability index under setting [2] is 3.56 ± 0.39.

On to QQLDLRWNNVGLLGGRALMNCLPS [LRRC45], for which the protein stability index turned out to be 2.65 ± 0.2 under setting [1] and 2.48 ± 0.2 under setting [2].

On to QRITQEQEKKLSFIEALIQQYQEQ [TRIM63], for which the protein stability index came out at 2.68 ± 0.36 under setting [1] and 3.02 ± 0.52 under setting [2].

In the case of QRLPRSAPPGSLVTKVTAVDADAG [PCDHGC5], the protein stability index was determined as 4.76 ± 0.21 under setting [1] and 4.82 ± 0.3 under setting [2].

Regarding QRRSRQNPQSPPQDSSVTSKRNIK [HDAC6], the protein stability index is, setting by setting: under setting [1], 5.26 ± 0.51; under setting [2], 5.27 ± 0.31.

On to QSWNNQAWNSPFYNCGEESLQSCM [NANOGP8], for which the protein stability index runs as follows: under setting [1], 2.51 ± 0.18; under setting [2], 2.48 ± 0.33.

QVAKREREAATKHSKASLPTGEGS [CHCHD6]: the protein stability index came out at 5.32 ± 0.47 under setting [1] and 5.26 ± 0.33 under setting [2].

For QVTASDSGDPPLSSNVSLSLFVLD [PCDHGA10], the protein stability index is, setting by setting: under setting [1], 3.31 ± 0.4; under setting [2], 3.48 ± 0.29.

In the case of QVVVLVRDNGDPSLSSTATVLLVL [PCDHGC5], the protein stability index is, setting by setting: under setting [1], 3.25 ± 0.44; under setting [2], 3.17 ± 0.23.

Take QYAIISEAWRLVEEGIVSPSDLDL [CRYL1]: the protein stability index runs as follows: under setting [1], 3.16 ± 0.19; under setting [2], 3.21 ± 0.34.

As to QYKKEPVTTRQVRTIVEEVQDGKV [KRT17], the protein stability index under setting [1] turned out to be 5 ± 0.22 and the protein stability index under setting [2] came to 5.12 ± 0.29.

With RAAYQQVIQPALPGQPLPGASVRG [TRAF3IP2], the protein stability index reads like this: under setting [1], 4.36 ± 0.35; under setting [2], 4.18 ± 0.32.

As for RAKFKRKYKVKLVEKRAFREIQL [NOP53], the protein stability index is, setting by setting: (treatment: DMSO, c terminus: native) 2.56 ± 0.36; (treatment: MLN4924 1 uM, 8 h, c terminus: native) 2.79 ± 0.17.

RAPLHSVGYTALVGSDAESWGWDL [SPSB4] registered a protein stability index under setting [1] of 2.81 ± 0.28 and a protein stability index under setting [2] of 3.13 ± 0.17.

With RAPPKRKRKRVKQRINTYVFVGNQ [PCMTD1], the protein stability index is, setting by setting: under setting [1], 3.53 ± 0.15; under setting [2], 3.41 ± 0.43.

Take RAVLGANDPEKNFLTTAIRPHGIF [NSDHL]: the protein stability index by setting is: under setting [1], 2.73 ± 0.47; under setting [2], 3.33 ± 0.039.

Turning to RCLHMFLQDEIIDKSYTPSKIRHA [SNX3], the protein stability index by setting is: under setting [1], 2.05 ± 0.58; under setting [2], 1.92 ± 0.52.

The sequence RDKILTATIENNRVILEIDNARLA [KRT13] registered a protein stability index under setting [1] of 2.69 ± 0.29 and a protein stability index under setting [2] of 2.83 ± 0.33.

As to RDNDHPDHSSRELSKILAKLERLK [FUT8], the protein stability index under setting [1] is 2.39 ± 0.25 and the protein stability index under setting [2] came to 2.27 ± 0.24.

Take REAVPALLGEPLAGPELDEMLREV [CABP4]: the protein stability index is 5.13 ± 0.22 under setting [1] and 5.12 ± 0.31 under setting [2].

As for RECGLAAPRFSFNDPSGSEEADFL [IRX6], the protein stability index runs as follows: under setting [1], 4.53 ± 0.21; under setting [2], 4.34 ± 0.33.

Regarding REEEDRALPENEFKKQIWLLFEYP [KCNA4], the protein stability index is 2.7 ± 0.19 under setting [1] and 2.94 ± 0.46 under setting [2].

Take REENEKLRLENSSLFSQALKDEEA [CCDC89]: the protein stability index is, setting by setting: under setting [1], 5.41 ± 0.46; under setting [2], 5.41 ± 0.37.

Regarding RELGPEELDELQAAFEEFDTDRDG [CABP4], the protein stability index was 5.63 ± 0.39 under setting [1] and 5.54 ± 0.35 under setting [2].

As to REVILKELAEATWCGISTDMWRSE [ZBED1], the protein stability index was determined as 2.71 ± 0.62 under setting [1] and 2.93 ± 0.58 under setting [2].

REYLSEEVQAVHKNTTYDLIANIV [USP39] returned a protein stability index under setting [1] of 2.23 ± 0.23 and a protein stability index under setting [2] of 2.32 ± 0.11.

In the case of RFALRFIRPDPRSRVTDPVGDIVS [FAF2], the protein stability index turned out to be 2.49 ± 0.35 under setting [1] and 2.62 ± 0.31 under setting [2].

In turn, RGADDAMESSKPGPVQVVLVQKDQ [ATL3] had a protein stability index under setting [1] of 5.09 ± 0.3 and a protein stability index under setting [2] of 4.95 ± 0.62.

In the case of RGAQGVILVYDIANRWSFDGIDRW [RAB40B], the protein stability index is 2.29 ± 0.65 under setting [1] and 2.19 ± 0.15 under setting [2].

On to RGPSPVVLGSQDALPIATAFTEYV [FCHO1], for which the protein stability index turned out to be 3.14 ± 0.39 under setting [1] and 3.18 ± 0.3 under setting [2].

RHQRTHTGEKPYQCNICGKCFSCN [ZNF263]: the protein stability index by setting is: under setting [1], 4.08 ± 0.43; under setting [2], 4.37 ± 0.3.

Regarding RIDELIESGKEEGMKIDLIDGKGR [KMT5A], the protein stability index reads like this: under setting [1], 4.96 ± 0.23; under setting [2], 4.85 ± 0.33.

In the case of RIFTSNTHSSVVLQGFDQLRLEGL [KLHL13], the protein stability index is 2.42 ± 0.18 under setting [1] and 2.49 ± 0.27 under setting [2].

Turning to RIKIRQCIGLQNLKLLDELPIAKV [ASB7], the protein stability index came out at 2.12 ± 0.31 under setting [1] and 2.19 ± 0.49 under setting [2].

Regarding RKCPVHGKTMELFCQTDQTCICYL [TRIM29], the protein stability index reads like this: under setting [1], 2.94 ± 0.61; under setting [2], 3.72 ± 0.59.

In the case of RKKSGDLKKAKVQVERMREVNSRC [FBXO34], the protein stability index is, setting by setting: under setting [1], 4.15 ± 0.17; under setting [2], 4.38 ± 0.42.

Consider RLLRDSEAFCHANCSGPAPAAKPD [P3H4], for which the protein stability index runs as follows: under setting [1], 4.01 ± 0.35; under setting [2], 4.01 ± 0.47.

As to RLRALGERHTMDLTVEGFQSWMWR [TMEM120A], the protein stability index is, setting by setting: under setting [1], 2.38 ± 0.27; under setting [2], 2.58 ± 0.49.

Consider RNGQWSEPPKCLDPCVISQEIMEK [CFHR2], for which the protein stability index was 4.24 ± 0.063 under setting [1] and 4.07 ± 0.24 under setting [2].

In the case of RPARSTLDELLGRGMATKLLARPG [FBF1], the protein stability index was 2.61 ± 0.19 under setting [1] and 2.63 ± 0.17 under setting [2].

Sequence RQLMKVVNEMCPNITRIYNIGKSH [CPXM2] yielded a protein stability index under setting [1] of 2.26 ± 0.12 and a protein stability index under setting [2] of 2.71 ± 0.56.

Regarding RQLPPPPTPANEERRGGLPPLPLH [WAS], the protein stability index reads like this: under setting [1], 4.53 ± 0.22; under setting [2], 4.52 ± 0.14.

Take RQLRRRALHPERAMDNHSDSEEEL [RETREG3]: the protein stability index came out at 5.47 ± 0.15 under setting [1] and 5.51 ± 0.2 under setting [2].

In turn, RQTSTKAVQHFYNIKLEGKVPMHK [ESRRG] yielded a protein stability index under setting [1] of 3.32 ± 0.11 and a protein stability index under setting [2] of 3.5 ± 0.26.

Consider RRDCDALMAGCIQEARERWNFDFV [CDKN1A], for which the protein stability index is, setting by setting: under setting [1], 2.06 ± 0.25; under setting [2], 2.05 ± 0.19.

For RRGLLVSLNELMIVIGILSAYISN [SLC2A12], the protein stability index was 3.05 ± 0.72 under setting [1] and 2.67 ± 0.84 under setting [2].

The values are drawn from the supplement of paper PMC10567573.
